Source: patent publication US20250090680A1
Substitutions are numbered along the chain they refer to.

B1: P6-D11 scFv clone (scFv, part only; not given: linker, domain order, tags, V domains shown, not shown: another chain or arm of the molecule; large carriers; small tags and cut ends)
VH: QVQLVQSGAEVKKPGASVKVSCKASGYTFTDYEMHWVRQAPGQGLEWMGALDPKTGDEAYSQKFKGRVTLTADKSTSTAYMELSSLTSEDTAVYYCTRFYSYTYWGQGTLVTVSS
VL: DVVMTQSPLSLPVTPGEPASISCRSEQSLVHSNGNTYLHWYLQKPGQSPQLLIYKVSNRFSGVPDRFSGSGSGTDFTLKISRVEAEDVGVYYCVQNGLFPPTFGQGTKLEIK
B2: P1-D6 scFv clone (scFv, part only; not given: linker, domain order, tags, V domains shown, not shown: another chain or arm of the molecule; large carriers; small tags and cut ends)
VH: B1 VH with K13N, K54F, E58T
VL: B1 VL with E26S, V94L, L98Y, F99V
B3: P1-E6 scFv clone (scFv, part only; not given: linker, domain order, tags, V domains shown, not shown: another chain or arm of the molecule; large carriers; small tags and cut ends)
VH: B1 VH with Q6E, E58T, Y60L
VL: B1 VL with E26S, Q27S, V94L, L98I, F99V
B4: P3-A1 scFv clone (scFv, part only; not given: linker, domain order, tags, V domains shown, not shown: another chain or arm of the molecule; large carriers; small tags and cut ends)
VH: B1 VH with Q6E, K54S, E58T
VL: B1 VL with E26S, S32W, V94A, G97T, L98H, F99V
B5: P1-G5 scFv clone (scFv, part only; not given: linker, domain order, tags, V domains shown, not shown: another chain or arm of the molecule; large carriers; small tags and cut ends)
VH: B1 VH with Q6E, L51I, E58T
VL: B1 VL with E26S, H39Q, V94S, N96V, G97T, L98H, F99V
B6: P1-B9 scFv clone (scFv, part only; not given: linker, domain order, tags, V domains shown, not shown: another chain or arm of the molecule; large carriers; small tags and cut ends)
VH: B1 VH with Q6E, E58T, Y60L
VL: B1 VL with E26S, H39Q, V94G, N96V, G97T, L98H, F99V
B7: P3-F7 scFv clone (scFv, part only; not given: linker, domain order, tags, V domains shown, not shown: another chain or arm of the molecule; small tags and cut ends)
VH: B1 VH with Q6E, E58T
VL: B1 VL with E26S, H39Q, N96V, G97T, L98H, F99V
B8: P1-A1 scFv clone (scFv, part only; not given: linker, domain order, tags, V domains shown, not shown: another chain or arm of the molecule; large carriers; small tags and cut ends)
VH: B1 VH with Q6E, E58T, K65Q
VL: B1 VL with E26S, H31R, G97T, L98H, F99V
B9: ARD-103 antibody (IgG) (antibody, V domains shown)
VH: B1 VH with Q6E, E58T
VL: DVVMTQSPLSLPVTPGEPASISCRSSQSLVHSNGNTYLHWYLQKPGQSPQLLIYKVSNRFSGVPDRFSGSGSGTDFTLKISRVEAEDVGVYYCSQNTHVPPTFGQGTKLEIKR
B10: P1-D6 IgG variant of ARD-103 (antibody, V domains shown)
VH: B1 VH with K13N, K54F, E58T
VL: B9 VL with S94L, T97G, H98Y
B11: P3-F7 IgG variant of ARD-103 (antibody, V domains shown)
VH: B1 VH with Q6E, E58T
VL: B9 VL with H39Q, S94V, N96V
B12: P1-B9 IgG variant of ARD-103 (antibody, V domains shown)
VH: B1 VH with Q6E, E58T, Y60L
VL: B9 VL with H39Q, S94G, N96V
B13: P1-E6 IgG variant of ARD-103 (antibody, V domains shown)
VH: B1 VH with Q6E, E58T, Y60L
VL: B9 VL with Q27S, S94L, T97G, H98I
B14: P3-A1 IgG variant of ARD-103 (antibody, V domains shown)
VH: B1 VH with Q6E, K54S, E58T
VL: B9 VL with S32W, S94A
B15: P6-D11 IgG variant of ARD-103 (antibody, V domains shown)
VH: B1 VH
VL: B9 VL with S26E, S94V, T97G, H98L, V99F
B16: P1-G5 IgG variant of ARD-103 (antibody, V domains shown)
VH: B1 VH with Q6E, L51I, E58T
VL: B9 VL with H39Q, N96V
B17: P1-A1 IgG variant of ARD-103 (antibody, V domains shown)
VH: B1 VH with Q6E, E58T, K65Q
VL: B9 VL with H31R, S94V

Target: recombinant human GPC3 protein (R&D Systems) (human) (UniProt P51654)
Test: Octet (BLI) off-rate ranking of scFv

Chain of UniProt P51654 (P51654 25-559): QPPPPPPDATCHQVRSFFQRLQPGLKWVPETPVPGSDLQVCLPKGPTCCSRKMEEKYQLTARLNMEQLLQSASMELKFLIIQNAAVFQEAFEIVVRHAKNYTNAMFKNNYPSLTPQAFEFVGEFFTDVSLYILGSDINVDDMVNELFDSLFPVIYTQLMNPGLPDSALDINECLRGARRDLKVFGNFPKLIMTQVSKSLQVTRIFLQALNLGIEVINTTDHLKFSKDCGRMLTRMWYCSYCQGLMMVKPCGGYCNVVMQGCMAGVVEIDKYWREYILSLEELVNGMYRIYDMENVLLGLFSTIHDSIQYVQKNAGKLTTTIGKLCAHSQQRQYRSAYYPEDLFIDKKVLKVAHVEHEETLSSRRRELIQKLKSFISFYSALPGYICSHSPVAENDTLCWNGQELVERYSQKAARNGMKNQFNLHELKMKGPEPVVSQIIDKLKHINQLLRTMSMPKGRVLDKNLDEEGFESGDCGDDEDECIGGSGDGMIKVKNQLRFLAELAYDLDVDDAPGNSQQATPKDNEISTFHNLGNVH

| Binder | koff [s⁻¹] |
| --- | --- |
| B1 | 0.000122 |
| B2 | 0.000193 |
| B3 | 0.00048 |
| B4 | 0.000304 |
| B5 | 0.000197 |
| B6 | 0.00027 |
| B7 | 0.000319 |
| B8 | 0.0003 |

Target: recombinant hGPC3-His (human) (UniProt P51654)
Test: Biacore SPR, antibody captured, hGPC3-His analyte, 1:1 model

| Binder | Kd [nM] | koff [s⁻¹] | kon [M⁻¹ s⁻¹] | fold of ka against ARD-103 [fold] |
| --- | --- | --- | --- | --- |
| B9 | 3.85 | 0.000185 | 48100 | – |
| B10 | 3.62 | 0.00033 | 91300 | – |
| B11 | 8.46 | 0.000724 | 85600 | – |
| B12 | 3.33 | 0.00026 | 78000 | – |
| B13 | 3.95 | 0.000299 | 75600 | – |
| B14 | 2.38 | 0.000196 | 82300 | – |
| B15 | 3.02 | 0.000324 | 107000 | 2 |
| B16 | 4.15 | 0.000326 | 78500 | – |
| B17 | 1.56 | 0.000172 | 110000 | – |

Target: recombinant human GPC3 protein (R&D Systems) (human) (UniProt P51654)
Test: ELISA, plate-coated recombinant hGPC3, IgG detected with anti-human Fc

| Binder | EC50 [nM] |
| --- | --- |
| B10 | 0.1 |
| B11 | 0.1 |
| B12 | 0.1 |
| B15 | 0.1 |
| B16 | 0.1 |

Target: recombinant hGPC3-His (human) (UniProt P51654)
Test: Biacore SPR, antibody captured, hGPC3-His analyte, 1:1 model; reference ARD-103 IgG

| Binder | fold change of ka against ARD-103 [fold] |
| --- | --- |
| B15 | 2 |

Target: recombinant human GPC3 protein (R&D Systems) (human) (UniProt P51654)
Test: binding ELISA on plate-coated recombinant hGPC3, detection with goat anti-human Fc secondary antibody and TMB

| Binder | EC50 [nM] |
| --- | --- |
| B9 | 0.11 |
| B10 | 0.11 |
| B11 | 0.1 |
| B12 | 0.095 |
| B15 | 0.094 |
| B16 | 0.095 |
